Source: paper PMC9302814

Biological target: SARS-CoV-2 Spike
Test: SPR

Substance: CC40.8
- Kd: 1.6 nM
- koff: 0.00038 s⁻¹

Substance: CV3-25
- Kd: 2.5 nM
- koff: 0.00061 s⁻¹

Substance: S2P6
- Kd: 9.7 nM
- koff: 0.0033 s⁻¹
